Test results reported in patent US20250171534A1 (D2M BIOTHERAPEUTICS, published 2025).

Assays:
[1] = target: T1, human LILRB1 expressed on cells (human, UniProt Q8NHL6 24-650); test: flow cytometry, Jurkat-LILRB1 cells
T1 construct: In 293T cells it was expressed from pCMV3-LILRB1-GFP; also called CHO-LILRB1; Jurkat-LILRB1

[2] = target: T2, human LILRB2 expressed on cells (human, UniProt Q8N423 22-597); test: flow cytometry, Jurkat-LILRB2 cells; blocked ligand: APC HLA-G monomer tetramer
T2 construct: In 293T cells it was expressed from pCMV3-LILRB2-GFP; also called CHO-LILRB2; Jurkat-LILRB2
T2 sequence (Q8N423 other isoform, or with tags, fused parts or gaps limits assumed): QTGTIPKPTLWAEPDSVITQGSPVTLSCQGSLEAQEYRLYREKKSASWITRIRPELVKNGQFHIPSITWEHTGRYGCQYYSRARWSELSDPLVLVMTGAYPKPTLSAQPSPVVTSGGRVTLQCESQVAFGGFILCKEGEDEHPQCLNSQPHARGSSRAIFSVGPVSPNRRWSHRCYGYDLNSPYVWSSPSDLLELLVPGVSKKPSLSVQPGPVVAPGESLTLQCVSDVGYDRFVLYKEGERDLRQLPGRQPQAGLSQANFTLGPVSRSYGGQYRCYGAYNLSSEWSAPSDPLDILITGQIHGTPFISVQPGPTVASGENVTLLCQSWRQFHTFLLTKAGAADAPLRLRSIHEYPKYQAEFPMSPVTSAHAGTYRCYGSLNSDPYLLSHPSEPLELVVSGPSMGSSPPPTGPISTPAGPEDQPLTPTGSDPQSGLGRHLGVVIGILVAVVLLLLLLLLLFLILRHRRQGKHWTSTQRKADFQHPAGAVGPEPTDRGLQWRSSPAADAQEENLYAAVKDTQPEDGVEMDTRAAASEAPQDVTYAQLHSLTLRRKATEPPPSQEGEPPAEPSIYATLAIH

[3] = target: T1, human LILRB1 expressed on cells; test: flow cytometry on CHO-LILRB1 cells (CHO-RB1), titrated antibody, labelled anti-human Fc, gMFI
[4] = target: T3, LILRB1-ECD-HIS (SinoBiological Cat #: 16014-H02H) (human, UniProt Q8NHL6 24-461); test: BLI (Gator), trace labelled 0.5 µg/mL; unit taken from the Average KD line
T3 construct: Bought protein; also called monomeric antigen LILRB1-ECD-HIS; not shown: His tag
T3 sequence (Q8NHL6 other isoform, or with tags, fused parts or gaps H02H H02H): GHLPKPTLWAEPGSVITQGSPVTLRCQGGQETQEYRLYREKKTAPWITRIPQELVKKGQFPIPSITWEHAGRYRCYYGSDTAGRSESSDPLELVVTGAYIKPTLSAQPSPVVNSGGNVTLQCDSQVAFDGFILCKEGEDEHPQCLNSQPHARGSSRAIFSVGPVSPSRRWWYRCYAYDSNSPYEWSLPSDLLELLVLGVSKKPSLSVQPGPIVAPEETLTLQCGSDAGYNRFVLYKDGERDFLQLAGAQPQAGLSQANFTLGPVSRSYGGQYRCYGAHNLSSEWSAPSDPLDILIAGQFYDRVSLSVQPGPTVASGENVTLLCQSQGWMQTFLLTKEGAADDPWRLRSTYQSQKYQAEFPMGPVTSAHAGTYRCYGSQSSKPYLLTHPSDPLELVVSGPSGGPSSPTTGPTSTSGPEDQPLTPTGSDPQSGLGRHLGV

[5] = target: T2, human LILRB2 expressed on cells; test: flow cytometry, Jurkat-LILRB2 cells
[6] = target: T1, human LILRB1 expressed on cells; test: flow cytometry, Jurkat-LILRB1 cells; blocked ligand: APC HLA-G trimer tetramer
[7] = target: T1, human LILRB1 expressed on cells; test: flow cytometry, CHO-LILRB1 cells
[8] = target: T1, human LILRB1 expressed on cells; test: flow cytometry on CHO-LILRB1 cells, non-linear fit of the curves of FIG. 26A
[9] = target: T4, LILRB3 expressed on cells (human, UniProt O75022 24-631); test: flow cytometry on CHO-LILRB3 cells, non-linear fit of the curves of FIG. 26C
T4 construct: whole, on cells; Expressed with a GFP tag from the bought plasmid; also called human LILRB3; CHO-LILRB3

[10] = target: T3, LILRB1-ECD-HIS (SinoBiological Cat #: …); test: BLI (Gator), trace labelled 2 µg/mL; unit taken from the Average KD line
[11] = target: T3, LILRB1-ECD-HIS (SinoBiological Cat #: …); test: BLI (Gator Prime), antibody on anti-hIgG Fc probe, monomeric LILRB1-ECD-HIS in solution
[12] = target: T5, LILRB2-ECD-HIS (SinoBiological Cat #: 14132-H02H) (human, UniProt Q8N423 22-460); test: BLI (Gator), trace labelled 2 µg/mL; unit taken from the Average KD line
T5 construct: Bought protein; also called monomeric antigen LILRB2-ECD-HIS; not shown: His tag
T5 sequence (Q8N423 other isoform, or with tags, fused parts or gaps H02H H02H): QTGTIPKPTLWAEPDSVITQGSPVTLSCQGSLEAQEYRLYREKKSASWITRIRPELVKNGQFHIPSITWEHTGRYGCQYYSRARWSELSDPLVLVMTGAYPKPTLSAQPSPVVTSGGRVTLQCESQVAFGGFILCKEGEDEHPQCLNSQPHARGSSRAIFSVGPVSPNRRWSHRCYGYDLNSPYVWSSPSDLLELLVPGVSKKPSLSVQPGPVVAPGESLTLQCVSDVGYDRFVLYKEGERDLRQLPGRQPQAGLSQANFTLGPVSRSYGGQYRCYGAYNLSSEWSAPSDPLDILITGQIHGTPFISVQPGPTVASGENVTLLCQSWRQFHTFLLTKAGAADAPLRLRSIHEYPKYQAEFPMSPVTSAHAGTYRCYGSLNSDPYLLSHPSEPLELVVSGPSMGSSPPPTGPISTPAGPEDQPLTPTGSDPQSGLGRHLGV

[13] = target: T5, LILRB2-ECD-HIS (SinoBiological Cat #: …); test: BLI (Gator), trace labelled 5 µg/mL; unit taken from the Average KD line
[14] = target: T6, cynomolgus (monkey) LILRB2 expressed on CHO cells (cynomolgus monkey); test: flow cytometry on CHO-cynoLILRB2 cells, non-linear fit of the curves of FIG. 26D
T6 construct: whole, on cells; Putative orthologue; also called cynoLILRB2; cynoRB2

[15] = target: T5, LILRB2-ECD-HIS (SinoBiological Cat #: …); test: BLI (Gator), RB2-ECD-his
[16] = target: T6, cynomolgus (monkey) LILRB2 expressed on …; test: flow cytometry on CHO-cynoLILRB2 cells
[17] = target: T7, LILRA3 expressed on 293T cells (UniProt Q8N6C8 24-439, limits assumed); test: flow cytometry on 293T cells transiently expressing LILRA3, APC anti-human Fc; gMFI as fold to IgG staining
T7 construct: whole, on cells; GFP-tagged, transient
T7 sequence (Q8N6C8 24-439 limits assumed): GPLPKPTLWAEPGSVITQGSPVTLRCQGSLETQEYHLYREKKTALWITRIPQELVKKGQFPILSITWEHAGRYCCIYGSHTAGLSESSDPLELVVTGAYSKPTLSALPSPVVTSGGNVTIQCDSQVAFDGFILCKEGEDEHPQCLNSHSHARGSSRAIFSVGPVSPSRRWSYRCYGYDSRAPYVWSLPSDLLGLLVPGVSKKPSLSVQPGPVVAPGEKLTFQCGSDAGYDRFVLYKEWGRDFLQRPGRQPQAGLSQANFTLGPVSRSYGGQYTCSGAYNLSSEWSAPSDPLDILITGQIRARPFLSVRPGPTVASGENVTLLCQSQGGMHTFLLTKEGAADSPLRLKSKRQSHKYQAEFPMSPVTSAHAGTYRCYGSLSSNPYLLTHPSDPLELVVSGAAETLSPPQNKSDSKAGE

[18] = target: T1, human LILRB1 expressed on cells; test: flow cytometry, CHO-LILRB1 cells; remark: listed apart in the source
[19] = target: T2, human LILRB2 expressed on cells; test: flow cytometry on CHO-LILRB2 cells, non-linear fit of the curves of FIG. 26B

T1 sequence (Q8NHL6 other isoform, or with tags, fused parts or gaps limits assumed): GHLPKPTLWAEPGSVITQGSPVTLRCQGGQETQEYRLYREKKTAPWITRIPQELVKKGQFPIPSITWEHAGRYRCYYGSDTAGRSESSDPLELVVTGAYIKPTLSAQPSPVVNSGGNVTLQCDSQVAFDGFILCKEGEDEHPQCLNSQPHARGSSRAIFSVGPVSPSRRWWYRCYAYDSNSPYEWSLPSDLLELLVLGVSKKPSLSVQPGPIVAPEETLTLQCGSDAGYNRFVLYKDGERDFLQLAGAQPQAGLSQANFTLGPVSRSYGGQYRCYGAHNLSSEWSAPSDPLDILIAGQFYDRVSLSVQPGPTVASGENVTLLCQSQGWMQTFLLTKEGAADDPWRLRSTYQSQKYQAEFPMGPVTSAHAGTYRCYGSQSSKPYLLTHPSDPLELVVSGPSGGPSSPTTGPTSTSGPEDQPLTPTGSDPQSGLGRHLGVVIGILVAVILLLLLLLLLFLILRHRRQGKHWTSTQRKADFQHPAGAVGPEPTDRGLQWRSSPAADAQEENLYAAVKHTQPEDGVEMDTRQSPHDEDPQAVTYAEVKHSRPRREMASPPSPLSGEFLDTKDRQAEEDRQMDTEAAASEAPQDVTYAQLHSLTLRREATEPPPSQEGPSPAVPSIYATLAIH

- EC50 [1]: 0.754 µg/mL
- IC50 [2]: 0.065 µg/mL
- EC50 (read off the curve) [3]: ~0.2 µg/mL
- Kd [4]: 3.13 nM
- EC50 (read off the curve) [5]: ~0.3 µg/mL
- IC50 [6]: 0.191 µg/mL
- EC50 [7]: 0.326 µg/mL
- EC50 [8]: 0.218 µg/mL
- MaxMFI [8]: 110000
- EC50 [9]: 12.8 µg/mL
- Kd [10]: 3.45 nM
- Kd [11]: 3.4 nM
- Kd [12]: 0.242 nM
- Kd [13]: 0.351 nM
- EC50 [14]: 2.85 µg/mL
- Kd [15]: 0.469 nM
- EC50 [16]: 5.5 µg/mL
- binding result [17]: no binding (tested: 5 µg/mL)
- EC50 [18]: 0.439 µg/mL
- gMFI (max) [18]: 35700
- EC50 [19]: 0.128 µg/mL
- MaxMFI [19]: 32600
B1: D2M002-002 (antibody, V domains shown)
VH: EVQLQQSGPELVKPGASVKMSCKASGYTFTRYVMHWVKQKPGQGLEWIGYINPNNDGTKYNEKFKGKVTLTSDKSSSTAYMELSSLTSEDSAVYYCARGDLEILPYYDHARNAMDYWGQGTSVTVSS
VL: DVQMIQSPASLSASVGETVTITCRASENIYSYLAWYQQKQGKSPQLLVYNAKTLAEGVPSRFSGSGSGTQFSLKINSLQPEDFGSYYCQHFWSTPPTFGGGTKLEIK
notes: Hit from immunised mice; also called clone #2; anti-LILRB1/2 clone #2
